Sequences and labels used below:
B1: CHG1-M-MIA-12A10 (antibody, from a related filing, V domains shown)
VH: QVQLQQSGADLVRPGASVRLSCRASGYSFTNYWMNWVKQRPGQGLEWIGMIHPSDSETRLNQKFKDKATLTVDKSSNTAYMQLSSPTSEDSAIYYCARDDFFTMDYWGQGTSVTVSS
VL: DILLTQSPAILSVSPGERVSFSCRASQNIVTSIHWYQQSTNGSPRLLIKYASESISGIPSRFSGSGSGTDFTLTINSVESEDVADYYCQQSNIWPLTFGAGTKLELK
B2: CHG1-M-MIA-14B4 (antibody, from a related filing, V domains shown)
VH: QVQLQQPGAELVRPGASVKLSCKASGYSFTSYWMNWMKQRPGQGLEWIGMIHPSDSETRLNQKFKDKATLTVDKSSSTAYMQLNSPTSEDSAVYYCAREMGPYTLDYWGQGTSVTVSS
VL: B1 VL with E17A, V30D, S39R, T74S, V83I, I93Y
B3: CHG1-M-MIA-10F3 (antibody, from a related filing, V domains shown)
VH: QVQLQQSAAELARPGASVKMSCKASGYTFTSYTMHWVKQRPGQGLEWIGYINPSSGYTEYNQKFKDKTTLTVDKSSTTSYMQLSSLTSDNSAVYYCARGGDWDVDWFVYWGQGTLVTVSA
VL: QIVLTQSPAIMSASPGEKVTITCSASSSISYMHWFQQKPGTSPKLWIYSTSKLASGVPARFSGSGSGTSHSLTISRMEAEDAATYYCQHRSTYPFTFGSGTKLEIK
B4: CHG1-M-MIA-18E8 (antibody, from a related filing, V domains shown)
VH: DVQLQESGPDLVNPSQSLSLICTVTGYSITSDYSWHWIRQFPGNKLEWMGNIHYSGRINYNPSLRSRISITRDTSKNQFFLQLISVTTEDTATYYCATRRTFGNFEDYWGQGTTLTVSS
VL: QIVLSQSPATLSVSPGEKVTMTCRSSSSVNYMHWYQQKPGSSPKPWIYATSTLASGVPARFSGSGSGTSYSLTISRVEAEDAATYYCQQWSSNPLTFGAGTKLELK
B5: CHG1-M-MIA-6E4 (antibody, from a related filing, V domains shown)
VH: EVQLVESGGALVKPGGSLKLSCAASGFTFSYYAMSWVRQTPEKRLEWVATISRGGNYIYYTDSVKGRFTISRDNAKNTLYLQMTSLRSEDTAMFYCASISDYDGAWLAYWGQGTTLTVSS
VL: DVLMTQTPLSLPVSLGDQASISCRSSQSIIHTNGNTYLEWYLQKPGQSPKLLIYKISNRFSGVPDRFSGSGSGTDFTLKISRVEAEDLGVYYCFQGSHVPWTFGGGTKLEIKR
B6: CHG1-M-MIA-19E9 (antibody, V domains shown)
VH: DVQLQESGPGLVKPSQSLSLTCTVTGYSITSDYAWNWIRQFPGNKLEWMGFVSYSGTTKYNPSLKSRISITRDTSENQFFLQLNSVTSEDTATYYCARGYGFDYWGQGTTLTVSS
VL: EIVLTQSPTTMAASPGEKITITCSATSSISSIYFHWYQQRPGFSPKLLIYRTSNLASGVPARFSGSGSGTSYSLTIGTMEAEDVATYYCQQGTTIPFTFGSGTKLEIK

Residue numbers refer to the chain shown, from its start.

Usually EC50 (read off the curve) stands for the midpoint of the concentration-response curve. High values mean a need for much substance, low ones an effect from little substance.

For one experiment, the target named is MICA*004 expressed on C1R transfectant cells (human) (UniProt Q29983). Description: flow cytometry, MFI against antibody concentration on C1R-MICA*04 cells. (In general: Flow cytometry measures light scatter and fluorescence of single cells or particles in a stream.)
Chain of MICA*004 expressed on C1R transfectant cells (human) (Q29983 other isoform, or with tags, fused parts or gaps limits assumed): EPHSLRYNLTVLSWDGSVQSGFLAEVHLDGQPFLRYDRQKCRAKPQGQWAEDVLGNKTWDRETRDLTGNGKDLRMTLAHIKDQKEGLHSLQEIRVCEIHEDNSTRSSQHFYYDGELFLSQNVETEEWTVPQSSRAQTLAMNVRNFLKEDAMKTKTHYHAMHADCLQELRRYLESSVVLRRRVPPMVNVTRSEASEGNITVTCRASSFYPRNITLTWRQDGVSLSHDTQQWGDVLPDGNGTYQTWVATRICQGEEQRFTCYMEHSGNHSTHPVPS
B1 yielded a concentration giving a half-maximal response (EC50 (read off the curve)) of 0.3 µg/mL.
Take B2: the EC50 (read off the curve) is 0.2 µg/mL. The EC50 (read off the curve) values of the last two molecules are within 1.5-fold of each other.
B3 registered an EC50 (read off the curve) of 0.2 µg/mL.
B4 came in with an EC50 (read off the curve) of 0.2 µg/mL.

Another experiment has as its target T1, MICA*001 expressed on transfected cells (human).
T1 sequence: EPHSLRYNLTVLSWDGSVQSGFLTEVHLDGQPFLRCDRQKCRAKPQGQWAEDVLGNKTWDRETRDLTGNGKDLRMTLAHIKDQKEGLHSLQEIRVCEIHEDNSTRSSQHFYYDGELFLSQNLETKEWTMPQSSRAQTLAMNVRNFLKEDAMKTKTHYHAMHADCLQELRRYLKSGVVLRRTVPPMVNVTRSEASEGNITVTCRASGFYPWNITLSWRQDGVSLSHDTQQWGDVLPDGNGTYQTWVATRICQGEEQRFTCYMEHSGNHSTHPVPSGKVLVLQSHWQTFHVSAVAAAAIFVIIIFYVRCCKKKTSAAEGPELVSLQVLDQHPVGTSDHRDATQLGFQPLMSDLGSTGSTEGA
Kind of experiment: flow cytometry, MFI against antibody concentration on C1R-MICA*01 cells.
Molecule B5 returned an EC50 (read off the curve) of 0.6 µg/mL.
The molecule B6 came in with a half-maximal effective concentration (EC50 (read off the curve)) of 1 µg/mL.

In a further experiment the target is MICA*008 expressed on C1R transfectant cells (human) (UniProt Q29983). Description: flow cytometry, MFI against antibody concentration on C1R-MICA*08 cells.
B1 showed a half-maximal effective concentration (EC50 (read off the curve)) of 0.3 µg/mL.
In turn, B2 had a half-maximal effective concentration (EC50 (read off the curve)) of 0.3 µg/mL.
The molecule B3 registered a concentration giving a half-maximal response (EC50 (read off the curve)) of 0.3 µg/mL.
Consider B4, for which the EC50 (read off the curve) was 0.3 µg/mL.

For a further experiment, the target named is MICA*007 expressed on C1R transfectant cells (human) (UniProt Q29983). Description: flow cytometry, MFI against antibody concentration on C1R-MICA*07 cells.
The molecule B1 registered an EC50 (read off the curve) of 1 µg/mL.
The molecule B5 showed an EC50 (read off the curve) of 1 µg/mL.
The molecule B4 registered an EC50 (read off the curve) of 0.3 µg/mL. Compared with the last molecule, the EC50 (read off the curve) is about 3.3-fold lower.
